Paper doi:10.64898/2025.12.15.694443

Molecular target: BRAF kinase domain (his6-BRAF^445-723-intein, intein cleaved) (human) (UniProt P15056)
Test: mass photometry

stoichiometry N: 2
Substance: BRAF kinase domain (his6-BRAF^445-723-intein, intein cleaved) (from UniProt P15056 445-723) (domain or fragment)
